Values of other authors as cited in paper PMC9506339.
Like-named read-outs stand apart in the source and are kept apart here.

Experiments:
[1] = molecular target: vitamin D-binding protein (UniProt P02774)
[2] = molecular target: vitamin D-binding protein (UniProt P02774); remark: listed apart in the source

UniProt P02774, sequence (P02774 17-474): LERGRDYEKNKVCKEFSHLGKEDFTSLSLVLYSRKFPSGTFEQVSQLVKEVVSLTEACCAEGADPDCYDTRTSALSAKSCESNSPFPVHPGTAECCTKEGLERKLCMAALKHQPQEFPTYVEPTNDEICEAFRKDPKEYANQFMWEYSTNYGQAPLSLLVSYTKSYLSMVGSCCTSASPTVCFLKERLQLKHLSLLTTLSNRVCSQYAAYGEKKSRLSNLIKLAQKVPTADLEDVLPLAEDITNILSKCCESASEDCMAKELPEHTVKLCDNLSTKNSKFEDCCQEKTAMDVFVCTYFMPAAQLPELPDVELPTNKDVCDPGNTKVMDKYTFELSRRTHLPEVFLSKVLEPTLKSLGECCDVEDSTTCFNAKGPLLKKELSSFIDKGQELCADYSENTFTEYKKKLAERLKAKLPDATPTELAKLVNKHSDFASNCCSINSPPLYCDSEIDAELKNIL

Substance	Kd [1] [nM]	Kd [2] [nM]
cubilin (from UniProt O60494)	110	
megalin (from UniProt P98164)		120
